Assay results as given in article PMC7369975, “Scalable High-Performance Production of Recombinant Horseradish Peroxidase from E. coli Inclusion Bodies” (International Journal of Molecular Sciences, 2020).

Columns and labels:
Assay type in all cases: biochemical, Armoracia rusticana
[1] = system: T1, pHRP (commercial plant HRP Type VI-A); assay: absorbance at […] nm, initial rate, 96-well plate; conditions: 1 mM H2O2 (saturating), 50 mM phosphate-citrate, pH 5, 30 °C; ABTS 0.1-7 mM
T1 construct: gene PRXC1A; native glycosylated enzyme from horseradish root, commercial preparation, variable isoenzyme mixture, 44 kDa

[2] = system: T1, pHRP (commercial plant HRP Type VI-A); assay: absorbance at […] nm, initial rate, 96-well plate; conditions: 1 mM H2O2 (saturating), 50 mM phosphate-citrate, pH 5; TMB 0.02-0.55 mM
purified protein = substrate: Cc1cc(-c2cc(C)c(N)c(C)c2)cc(C)c1N; assay: purified protein; conditions: 1 mM H2O2 (saturating), 50 mM phosphate-citrate, pH 5, TMB 0.02-0.55 mM

## CCn1c(=NN=c2sc3cc(S(=O)(=O)O)ccc3n2CC)sc2cc(S(=O)(=O)O)ccc21 [ABTS, 2,2′-azino-bis (3-ethylbenzothiazoline-6-sulphonic acid)]
[1]
  Km: 700 ± 140 µM

## Cc1cc(-c2cc(C)c(N)c(C)c2)cc(C)c1N [TMB, 3,3′,5,5′-tetramethylbenzidine]
[2]
  Km: 101 ± 20 µM

B1: rHRP (refolded recombinant HRP, variant C1A) (Armoracia rusticana) (protein)
chain: QLTPTFYDNSCPNVSNIVRDTIVNELRSDPRIAASILRLHFHDCFVNGCDASILLDNTTSFRTEKDAFGNANSARGFPVIDRMKAAVESACPRTVSCADLLTIAAQQSVTLAGGPSWRVPLGRRDSLQAFLDLANANLPAPFFTLPQLKDSFRNVGLNRSSDLVALSGGHTFGKNQCRFIMDRLYNFSNTGLPDPTLNTTYLQTLRGLCPLNGNLSALVDFDLRTPTIFDNKYYVNLEEQKGLIQSDQELFSSPNATDTIPLVRSFANSTQTFFNAFVEAMDRMGNITPLTGTQGQIRLNCRVVNSNS
Purified protein
  Km: 105 ± 14 µM
  Vmax: 7150 µmol/min/mg
  kcat: 4170 ± 207 s⁻¹
  kcat/Km: 3.96e+07 ± 5.66e+06 M⁻¹ s⁻¹
